Each block holds one binder with its values, some of them ahead of it.
How the values were obtained:
[1] = target: T1, ARR12 (Arabidopsis, UniProt P62598 1-596); assay: yeast two-hybrid (LexA-KMD bait, B42-ARR prey, X-gal)
T1 construct: YFP^N or YFP^C fusion of the full-length cDNA in BiFC; also called AtARR12; type-B response regulator AtARR12
T1 sequence (looked up): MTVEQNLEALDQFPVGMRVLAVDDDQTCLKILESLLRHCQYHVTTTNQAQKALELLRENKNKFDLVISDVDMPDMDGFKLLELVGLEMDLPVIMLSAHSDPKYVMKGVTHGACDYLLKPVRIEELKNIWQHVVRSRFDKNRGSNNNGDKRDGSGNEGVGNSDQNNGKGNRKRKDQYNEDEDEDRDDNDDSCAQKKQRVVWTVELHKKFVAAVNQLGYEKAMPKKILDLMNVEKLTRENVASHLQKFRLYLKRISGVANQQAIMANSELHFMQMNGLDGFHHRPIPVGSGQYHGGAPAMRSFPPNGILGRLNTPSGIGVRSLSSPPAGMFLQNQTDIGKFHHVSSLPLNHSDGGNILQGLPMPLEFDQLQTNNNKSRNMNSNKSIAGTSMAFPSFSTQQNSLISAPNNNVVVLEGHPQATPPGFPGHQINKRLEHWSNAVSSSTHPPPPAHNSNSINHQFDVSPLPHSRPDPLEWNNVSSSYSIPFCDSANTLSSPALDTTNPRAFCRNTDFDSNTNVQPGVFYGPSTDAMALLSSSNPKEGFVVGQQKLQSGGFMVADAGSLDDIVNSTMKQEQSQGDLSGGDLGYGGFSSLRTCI
Procedure, shortened: (§1)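 LexA DNA-binding-domain KMD bait fusions (pGilda) and B42 activation-domain type-B ARR prey fusions (pJG4-5) were co-transformed into yeast EGY48 carrying the lacZ reporter plasmid pSH18-34. Interaction was scored by colour on X-gal medium.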

[2] = target: T2, ARR20 (type-B ARR subfamily-3) (Arabidopsis, UniProt Q9LZJ8 1-426, limits assumed); assay: as above
T2 sequence (looked up): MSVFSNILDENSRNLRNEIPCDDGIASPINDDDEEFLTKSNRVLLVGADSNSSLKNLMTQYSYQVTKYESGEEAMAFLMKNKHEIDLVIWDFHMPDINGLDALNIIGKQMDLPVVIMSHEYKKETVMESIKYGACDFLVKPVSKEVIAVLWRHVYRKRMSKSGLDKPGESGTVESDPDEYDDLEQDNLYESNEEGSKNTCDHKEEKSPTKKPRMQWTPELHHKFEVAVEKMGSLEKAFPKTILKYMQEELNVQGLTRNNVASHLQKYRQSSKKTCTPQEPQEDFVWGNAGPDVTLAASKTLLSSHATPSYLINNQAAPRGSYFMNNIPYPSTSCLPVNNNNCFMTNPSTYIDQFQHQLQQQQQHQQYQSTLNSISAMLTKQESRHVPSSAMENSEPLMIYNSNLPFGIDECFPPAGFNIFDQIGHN
Procedure, shortened: as §1

[3] = target: T3, ARR12 (133-596) (Arabidopsis, UniProt P62598 133-596); assay: BiFC with ARR fragments
T3 construct: range 133-596; Fused to a YFP fragment for BiFC; also called C-terminal domain of ARR12
T3 sequence (looked up): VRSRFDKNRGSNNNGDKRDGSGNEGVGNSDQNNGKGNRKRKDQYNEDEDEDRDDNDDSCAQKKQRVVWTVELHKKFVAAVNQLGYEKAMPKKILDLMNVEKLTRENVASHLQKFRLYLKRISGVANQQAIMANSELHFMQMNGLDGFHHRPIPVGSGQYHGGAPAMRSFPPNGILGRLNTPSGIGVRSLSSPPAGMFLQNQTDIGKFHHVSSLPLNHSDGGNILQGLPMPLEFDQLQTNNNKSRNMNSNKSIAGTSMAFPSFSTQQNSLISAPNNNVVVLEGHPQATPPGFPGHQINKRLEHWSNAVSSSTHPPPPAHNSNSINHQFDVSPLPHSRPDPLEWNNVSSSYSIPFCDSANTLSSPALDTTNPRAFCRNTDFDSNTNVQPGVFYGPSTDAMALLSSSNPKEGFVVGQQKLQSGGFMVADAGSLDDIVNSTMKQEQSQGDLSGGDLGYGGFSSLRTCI

binding result [1]: binds
binding result [2]: binds
B1: KISS ME DEADLY 2 (KMD2) (other, Arabidopsis, UniProt Q9LMR5 1-359, looked up)
chain: MELIPDLPETVAYECLLRSSYKQFPLMASVCKLWQREISLSDFFRHRKASGHSQELVVLSQARVDPVKELVSGNKTIPTPVYRISVLELGTGLRSELPPVPGHSNGLPLFCRLVSVGSDLVVLCGLDPVTWRTSDSVFVFSFLTSTWRVGKSMPGGPRSFFACASDSQRNVFVAGGHDEDKNAMMSALVYDVAEDRWAFLPDMGRERDECTAIFHAGKFHVIGGYSTEEQGQFSKTAESFDVTTWRWSPQGEEFLSSEMTMWPPICAAGENGDLYACCRRDLMMMKDDTWYKVGNLPADVCNVSYVAIRRSGNLVVIGSARYGEPSVGYNWDMSNSRWLKLETHDKYEGHVQAGCFLEI
notes: Full-length protein; LexA fusion in yeast two-hybrid, YFP^N or YFP^C fusion in BiFC; also called At1g15670

binding result [1]: binds
binding result [2]: binds
binding result [3]: binds
B2: KISS ME DEADLY 1 (KMD1) (other, Arabidopsis, UniProt Q9M8L2 1-354, looked up)
chain: MELIPNLPDDVARECLLRSSYQQFPVIASVCRAWNREVSLSQFLHQRKASRHSQELLILSQARVDPAGSGKIIATPEYRISVLESGSGLWTELPPIPGQTKGLPLFCRLVSVGSDLIVLGGLDPITWQAHDSVFVFSFLTSKWRVGATMPGVRRSFFGCASDSDRTVLVAGGHNEEKCALTSAMVYDVSEDKWTFLPDMARERDECKAVFHAGRFHVIGGYATEEQGQFSKTAESFDVSTWEWGPLTEDFLDDTGDTVSPPTCVAGGDLYACWGGDVMMFLNDKWQKVGQIPADVYNVTYVAVRPGMLIVIGNGKALAGYGEATVGYICDLSSSRWVKLETHGGHVQAGCFLEV
notes: Full-length protein; also called At1g80440
